Reference: paper PMC4644993, “The second virial coefficient as a predictor of protein aggregation propensity: A self-interaction chromatography study” (European Journal of Pharmaceutics and Biopharmaceutics, 2015)

Target: the molecule itself
Assay: self-interaction chromatography; the same protein immobilised on Toyopearl particles (surface coverage ~30-40%) and injected (5-15 mg/mL, 10 uL, 0.5 mL/min); b2 from first-moment retention; increasing ionic strength of different sodium salts; 20 mM sodium phosphate pH 7.0 for lactoferrin, catalase and con A, 50 mM sodium acetate pH 4.5 for lysozyme

B1: catalase from bovine liver (enzyme, UniProt P00432 1-527, looked up)
chain: MADNRDPASDQMKHWKEQRAAQKPDVLTTGGGNPVGDKLNSLTVGPRGPLLVQDVVFTDEMAHFDRERIPERVVHAKGAGAFGYFEVTHDITRYSKAKVFEHIGKRTPIAVRFSTVAGESGSADTVRDPRGFAVKFYTEDGNWDLVGNNTPIFFIRDALLFPSFIHSQKRNPQTHLKDPDMVWDFWSLRPESLHQVSFLFSDRGIPDGHRHMNGYGSHTFKLVNANGEAVYCKFHYKTDQGIKNLSVEDAARLAHEDPDYGLRDLFNAIATGNYPSWTLYIQVMTFSEAEIFPFNPFDLTKVWPHGDYPLIPVGKLVLNRNPVNYFAEVEQLAFDPSNMPPGIEPSPDKMLQGRLFAYPDTHRHRLGPNYLQIPVNCPYRARVANYQRDGPMCMMDNQGGAPNYYPNSFSAPEHQPSALEHRTHFSGDVQRFNSANDDNVTQVRTFYLKVLNEEQRKRLCENIAGHLKDAQLFIQKKAVKNFSDVHPEYGSRIQALLDKYNEEKPKNAVHTYVQHGSHLSAREKANL
notes: catalase from bovine liver, MW 250 kD, pI 5.4; Immobilised copy is coupled to Toyopearl AF-Amino-650M particles with EDC and NHS; source: bought: Sigma Aldrich (C9322)
B1: binds.
